Experimental data published in patent US20210163606A1 (ATYR PHARMA, published 2021).

What was measured:
[1] = molecular target: T1, Cynomolgus NRP2 (aa23-854) with C-terminal Fc-tag (cynomolgus monkey); experiment: SPR (ProteOn XPR36), antibody captured on anti-human Fab-kappa, cyno NRP2-Fc as analyte, bivalent analyte fit
T1 construct: range 23-854; sensorgrams fitted to a bivalent analyte model; also called Cynomolgus NRP2 antigen protein
Experimental: Anti-NRP2 antibody binding and affinity measurements. […] SPR experiments were conducted on a Bio-Rad ProteOn XPR36 Protein Interaction Array instrument. Biotinylated anti-human antibody (ThermoFisher Cat #7103302100) was immobilized on ProteOn NLC sensor chips. Anti-NRP2 antibodies were subsequently flowed over and captured by the anti-human antibody. Cynomolgus NRP2 antigen protein was flowed over the captured antibody at varying concentrations (150, 50, 16.67, 5.56, 1.85 nM). The sensor chip surface was regenerated between each analyte run to remove anti-NRP2 antibodies and NRP2 protein. Data was double referenced against a surface with no anti-NRP2 antibody captured (immobilized anti-human antibody only) and a buffer only blank. Affinity constants were derived by globally fitting sensograms to a bivalent analyte interaction model in the ProteOn manager software. For each anti-NRP2 antibody, data from the multiple NRP2 concentrations was fit as a single data set with dissociation rate constant (kd), association rate constant (kₐ) and Rₘₐₓ values as global parameters. The reported binding affinity is the equilibrium dissociation constant (KD) calculated from kd/kₐ. [0681] Running buffer: 50 mM HEPES, 300 mM NaCl, 5 mM CaCl₂, 0.005% Tween-20, pH 7.4 [0682] Immobilized antibody: CaptureSelect Human Fab-kappa Kinetics Biotin Conjugate, Thermo Fisher Cat #7103302100 [0683] Antigen: Cynomolgus NRP2 (aa23-854) with C-terminal Fc-tag [0684] Regeneration buffer: 10 mM glycine pH 2.0

[2] = molecular target: T2, cynomolgus monkey NRP2 on transfected Expi293 cells (cynomolgus monkey); experiment: flow cytometry on Cyno NRP2-transfected Expi293 cells
T2 construct: whole, on cells; Plasmid bought from Origene; transient transfection; also called Cyno NRP2
Experimental: Binding of a-NRP2 to cynomolgus monkey NRP2-transfected Expi293 cells. Cynomolgus monkey (cyno) NRP2-transfected Expi293 cells were collected by centrifugation at 300 g for 5 minutes, and washed twice by DPBS (with calcium and magnesium, ThermoFisher Cat #14040133).
Washed cells were added to a 96-well V-bottom plate (ThermoFisher Cat #1424572) at 100,000 cells/well in 50 μL of DPBS added with Zombie Violet viability stain (Biolegend Cat #423114, diluted at 1:500). From this step on, cells were protected from light. Cells were kept at room temperature for 10 min and pelleted down at 300 g for 5 minutes at 4° C. Supernatants containing Zombie Violet were discarded, and without washing, 30 uL of antibodies diluted in the flow wash buffer (FWB, DPBS plus 2% FBS and 0.1% sodium azide to inhibit receptor internalization) were added to the cells. For a-NRP2 staining on Cyno NRP2-transfected Expi293 cells, in-house human anti-NRP2 antibodies were tested at final concentrations of 0.006-100 nM at 4-fold dilutions. For each test, NRP2 over-expression on the cell surface was validated by a-NRP2 staining (10 μg/mL R&D #AF567 a-NRP2) in separate wells. Binding was allowed to proceed on ice for 40-60 minutes. Cells were then pelleted at 300 g for 5 minutes at 4° C., supernatants removed, and cells washed twice by adding 150 μL of FWB and centrifuging the cells again in the same conditions. To detect a-NRP2 binding on the cell surface, Cy3-conjugated goat anti-human IgG Fc or AF647-conjugated donkey anti-goat IgG (Jackson ImmunoResearch Cat #109165098 & 705605147) was added to the cells at a final concentration of 3 μg/mL in 30 μL of FWB. After 30-40 minutes of incubation on ice, cells were pelleted at 300 g for 5 minutes at 4° C. and supernatants removed, and the cells were washed twice as described previously. […] Cells were then analyzed on FlowJo analysis software by excluding dead cells and gating singlets.
The EC₅₀ of three anti-NRP2 antibodies, each against a distinct domain of NRP2, were measured for binding to Cyno NRP2-transfected Expi293 cells (see Table E2 and FIG. 4).

B1: aNRP2-10v10 (antibody, V domains shown)
VH: EVQLVQSGAEVKKPGATVKISCKVSGFNIKDYYVHWVQQAPGKGLEWMGRIDVEDDETKYAPKFQGRVTITADTSTDTAYMELSSLRSEDTAVYYCATPIYGAREAWFAYWGQGTLVTVSS
VL: DIQMTQSPSSLSASVGDRVTITCTASSSVSSSYLHWYQQKPGKAPKLLIYRTSNLASGVPSRFSGSGSGTDFTLTISSLQPEDFATYYCHQYYRSPPTFGGGTKVEIK
Which results are given for B1?
Kd [1]: 0.032 nM; EC50 [2]: 2.9 nM
